Measured values from patent publication US20260216242A1 (ALMAC DISCOVERY, published 2026).

Experiments:
[1] = biological target: T1, human ALPPL2 (alkaline phosphatase, germ cell type) expressed on the surface of CHO cells (human, UniProt P10696 20-503); assay: cell-based or functional assay
[2] = biological target: T2, human ALPI (intestinal alkaline phosphatase) expressed on the surface of CHO cells (human, UniProt P09923 20-503); assay: cell-based or functional assay
T2 sequence (looked up): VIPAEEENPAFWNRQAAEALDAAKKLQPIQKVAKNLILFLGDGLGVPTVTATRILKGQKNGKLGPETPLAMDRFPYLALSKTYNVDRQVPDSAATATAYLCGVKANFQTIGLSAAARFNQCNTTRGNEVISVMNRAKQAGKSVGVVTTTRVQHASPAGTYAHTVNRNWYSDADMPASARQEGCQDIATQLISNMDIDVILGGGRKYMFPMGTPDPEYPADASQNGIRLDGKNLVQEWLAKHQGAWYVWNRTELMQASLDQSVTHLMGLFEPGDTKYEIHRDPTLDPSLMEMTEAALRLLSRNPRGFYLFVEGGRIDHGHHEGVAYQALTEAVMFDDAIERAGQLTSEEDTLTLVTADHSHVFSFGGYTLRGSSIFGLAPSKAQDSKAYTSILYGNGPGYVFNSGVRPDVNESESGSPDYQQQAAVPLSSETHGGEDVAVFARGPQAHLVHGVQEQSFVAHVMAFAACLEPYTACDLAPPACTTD

[3] = biological target: T3, human ALPL (tissue non-specific alkaline phosphatase) expressed on the surface of CHO cells (human, UniProt P05186 18-501); assay: cell-based or functional assay
T3 sequence (looked up): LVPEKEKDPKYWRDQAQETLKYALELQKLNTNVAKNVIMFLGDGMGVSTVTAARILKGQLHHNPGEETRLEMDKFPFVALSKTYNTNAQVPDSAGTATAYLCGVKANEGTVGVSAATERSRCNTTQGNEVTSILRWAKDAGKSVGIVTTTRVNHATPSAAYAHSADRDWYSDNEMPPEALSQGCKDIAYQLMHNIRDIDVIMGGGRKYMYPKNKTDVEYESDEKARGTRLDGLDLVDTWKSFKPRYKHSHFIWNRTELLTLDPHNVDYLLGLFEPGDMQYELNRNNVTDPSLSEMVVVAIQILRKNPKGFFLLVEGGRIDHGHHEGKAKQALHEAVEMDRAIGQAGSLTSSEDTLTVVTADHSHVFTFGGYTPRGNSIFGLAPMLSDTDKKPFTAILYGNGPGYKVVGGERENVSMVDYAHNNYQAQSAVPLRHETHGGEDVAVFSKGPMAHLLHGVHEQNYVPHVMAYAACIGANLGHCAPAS

[4] = biological target: T3, human ALPL (tissue non-specific …); assay: flow cytometry, CHO-ALPL cells
[5] = biological target: T2, human ALPI (intestinal alkaline …); assay: flow cytometry on CHO-ALPI cells
[6] = biological target: T4, human ALPP (alkaline phosphatase, placental type) expressed on the surface of CHO cells (human, UniProt P05187 23-506); assay: flow cytometry on CHO-ALPP cells, apparent KD (KDapp)
T4 construct: also called CHO-ALPP; hALPP
Procedure: (§1) Biparatopic VHH-hFc drug conjugates were assessed for human ALPP, ALPPL2, ALPI and ALPL cell-surface binding by flow cytometry. Binders were screened on CHO cells stably expressing human ALPP, ALPPL2, ALPI or ALPL.
(§2) Cell surface binding of test agents to hALPP isoforms was characterized in four CHO-ALPP isoform transfectant cell lines (CHO-ALPP, CHO-ALPPL2, CHO-ALPI and CHO-ALPL) and the resulting KDapp values determined. Adherent cells were detached from tissue culture flasks by incubating with 0.1% EDTA/PBS solution at 37° C. for […] or until cells detached easily. Cells were re-suspended in ice-cold PBS/2% FCS in 15 ml tubes and centrifuged at 1700 rpm for 5 mins at 4° C. Supernatant was removed and the cell pellet re-suspended in PBS/2% FCS. […] Cells were incubated with 100 μl of test agents at a range of concentrations, plus controls for 1 hr on ice. The sample plate was centrifuged at 1700 rpm for 5 mins at 4° C. The supernatant was removed, and a wash performed by re-suspending the cell pellets in 0.25 mL of ice-cold PBS/2% FCS using a multichannel pipette. Samples were again centrifuged at 1700 rpm for 5 min at 4° C. Supernatant was removed and two further washes performed as described. After the final wash and centrifugation step, excess liquid was removed by blotting the plate on tissue paper. Binding of VHH-hFc agents was determined by adding 100 μl of Fitc-anti-human Ab (ThermoFisher) and incubating for 30 mins on ice in the dark. Wash steps were performed as described previously. All cell pellets were finally re-suspended in 0.28 ml of ice-cold PBS/2% FCS and left on ice in the dark prior to analysis on a Merck-Millipore Guava EasyCyte HT or Thermo Fisher Attune N×T flow cytometer.

[7] = biological target: T1, human ALPPL2 (alkaline phosphatase, …); assay: flow cytometry on CHO-ALPPL2 cells, apparent KD (KDapp)
Procedure: as §1, §2

T4 sequence (P05187 23-506 limits assumed): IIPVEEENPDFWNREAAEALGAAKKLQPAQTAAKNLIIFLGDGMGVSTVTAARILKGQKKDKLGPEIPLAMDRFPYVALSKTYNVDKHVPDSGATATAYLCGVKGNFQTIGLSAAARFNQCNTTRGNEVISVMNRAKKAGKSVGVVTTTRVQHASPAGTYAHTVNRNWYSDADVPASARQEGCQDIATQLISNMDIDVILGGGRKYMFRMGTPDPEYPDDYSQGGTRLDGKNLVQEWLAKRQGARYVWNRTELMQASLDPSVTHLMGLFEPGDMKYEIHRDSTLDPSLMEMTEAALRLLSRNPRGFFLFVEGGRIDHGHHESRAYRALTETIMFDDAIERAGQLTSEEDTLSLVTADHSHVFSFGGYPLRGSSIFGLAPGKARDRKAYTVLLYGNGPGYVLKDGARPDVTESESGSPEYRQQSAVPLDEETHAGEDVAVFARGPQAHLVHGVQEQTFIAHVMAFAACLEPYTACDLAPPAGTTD
T1 sequence (P10696 20-503): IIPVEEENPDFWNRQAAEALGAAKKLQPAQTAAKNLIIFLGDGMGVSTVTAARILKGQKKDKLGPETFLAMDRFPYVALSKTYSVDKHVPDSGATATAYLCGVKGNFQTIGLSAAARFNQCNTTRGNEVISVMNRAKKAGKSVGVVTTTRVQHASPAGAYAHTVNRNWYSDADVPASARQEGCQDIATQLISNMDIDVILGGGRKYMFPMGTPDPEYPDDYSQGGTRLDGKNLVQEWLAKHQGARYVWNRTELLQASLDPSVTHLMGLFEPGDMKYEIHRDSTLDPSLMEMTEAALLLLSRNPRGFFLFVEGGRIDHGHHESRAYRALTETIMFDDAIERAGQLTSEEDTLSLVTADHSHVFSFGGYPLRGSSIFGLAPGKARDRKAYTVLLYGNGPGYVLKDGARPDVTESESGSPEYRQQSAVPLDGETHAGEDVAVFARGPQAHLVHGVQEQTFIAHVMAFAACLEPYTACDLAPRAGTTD

Binder	IC50 at 96 h, cell-killing of CHO-ALPPL2 cells [1]	IC50 at 96 h, cell-killing of CHO-ALPI cells (estimated from data extrapolation) [2]	IC50 at 96 h, cell-killing of CHO-ALPL cells (estimated from data extrapolation) [3]	binding result [4]	MFI on CHO-ALPI cells at 350 nM as percent of MFI on CHO-ALPP cells (KDapp not-determinable) [5]	Kd [6]	Kd [7]	IC50 at 96 h, cell-killing of CHO-ALPI cells [2]	IC50 at 96 h, cell-killing of CHO-ALPL cells [3]
A06 E06-hFc (S239/442C T366Y/Y407T), [G4S]1 linker, MC-vc-PAB-MMAE conjugate, #710 (Fc fusion, DAR 4, MC-vc-PAB-MMAE on Cys of S239C and S442C (EU numbering), Biparatopic knob-into-hole VHH-hFc heterodimer, DAR 4; The assignment of T366Y to the first named VHH and Y407T to the second follows the order of the name; No paragraph spells out this pair; also called A06-E06-hFc-vcPAB-MMAE; A06-E06 hFc-vc-MMAE) chain 1: QVHLVESGGGLVQAGGSLRLSCAASGRTFLSMGWFRQAPGKEREFVAAISWTGGSTGYADSVKGRFTISRESDKETMYLQMNSLKPEDTAVYYCAARGDVYYGGDDATRYKYWGQGTQVTVSSGGGGSEPKSSDKTHTCPPCPAPELLGGPCVFLFPPKPKDTLMISRTPEVTCVVVDVSHEDPEVKFNWYVDGVEVHNAKTKPREEQYNSTYRVVSVLTVLHQDWLNGKEYKCKVSNKALPAPIEKTISKAKGQPREPQVYTLPPSRDELTKNQVSLYCLVKGFYPSDIAVEWESNGQPENNYKTTPPVLDSDGSFFLYSKLTVDKSRWQQGNVFSCSVMHEALHNHYTQKSLCLSPGK chain 2: QVHLVESGGGLVQAGGSLRLSCAASRRSFSEYAMGWFRQAPGKEREFVAAIGWSGVIEYADSVKGRFTISRDNAKDTVYLQMNSLKPEDTAVYYCAAGLGIRVVSQTPAYWGQGTQVTVSSGGGGSEPKSSDKTHTCPPCPAPELLGGPCVFLFPPKPKDTLMISRTPEVTCVVVDVSHEDPEVKFNWYVDGVEVHNAKTKPREEQYNSTYRVVSVLTVLHQDWLNGKEYKCKVSNKALPAPIEKTISKAKGQPREPQVYTLPPSRDELTKNQVSLTCLVKGFYPSDIAVEWESNGQPENNYKTTPPVLDSDGSFFLTSKLTVDKSRWQQGNVFSCSVMHEALHNHYTQKSLCLSPGK	18.1 nM	~846 nM	~699 nM	no binding (tested: 350 nM (highest concentration))	≤ 1%	11 nM	5.6 nM		
A06 E06-hFc (S239/442C T366Y/Y407T), [G4S]3 linker, MC-vc-PAB-MMAE conjugate, #639 (Fc fusion, DAR 4, MC-vc-PAB-MMAE on Cys of S239C and S442C (EU numbering), Biparatopic knob-into-hole VHH-hFc heterodimer, DAR 4; The assignment of T366Y to the first named VHH and Y407T to the second follows the order of the name; No paragraph spells out this pair; also called A06-E06 hFc-vcPAB-MMAE; A06-E06hFc-vc-MMAE) chain 1: QVHLVESGGGLVQAGGSLRLSCAASGRTFLSMGWFRQAPGKEREFVAAISWTGGSTGYADSVKGRFTISRESDKETMYLQMNSLKPEDTAVYYCAARGDVYYGGDDATRYKYWGQGTQVTVSSGGGGSGGGGSGGGGSEPKSSDKTHTCPPCPAPELLGGPCVFLFPPKPKDTLMISRTPEVTCVVVDVSHEDPEVKFNWYVDGVEVHNAKTKPREEQYNSTYRVVSVLTVLHQDWLNGKEYKCKVSNKALPAPIEKTISKAKGQPREPQVYTLPPSRDELTKNQVSLYCLVKGFYPSDIAVEWESNGQPENNYKTTPPVLDSDGSFFLYSKLTVDKSRWQQGNVFSCSVMHEALHNHYTQKSLCLSPGK chain 2: QVHLVESGGGLVQAGGSLRLSCAASRRSFSEYAMGWFRQAPGKEREFVAAIGWSGVIEYADSVKGRFTISRDNAKDTVYLQMNSLKPEDTAVYYCAAGLGIRVVSQTPAYWGQGTQVTVSSGGGGSGGGGSGGGGSEPKSSDKTHTCPPCPAPELLGGPCVFLFPPKPKDTLMISRTPEVTCVVVDVSHEDPEVKFNWYVDGVEVHNAKTKPREEQYNSTYRVVSVLTVLHQDWLNGKEYKCKVSNKALPAPIEKTISKAKGQPREPQVYTLPPSRDELTKNQVSLTCLVKGFYPSDIAVEWESNGQPENNYKTTPPVLDSDGSFFLTSKLTVDKSRWQQGNVFSCSVMHEALHNHYTQKSLCLSPGK	8.6 nM			no binding (tested: 350 nM (highest concentration))	≤ 1%	8.5 nM	4.2 nM	> 1000 nM	> 1000 nM
A06 E10-hFc (S239/442C T366Y/Y407T), [G4S]3 linker, MC-vc-PAB-MMAE conjugate, #664 (Fc fusion, DAR 4, MC-vc-PAB-MMAE on Cys of S239C and S442C (EU numbering), Biparatopic knob-into-hole VHH-hFc heterodimer, DAR 4; The assignment of T366Y to the first named VHH and Y407T to the second follows the order of the name; No paragraph spells out this pair; also called A06-E10 hFc-vcPAB-MMAE; A06-E10hFc-vc-MMAE) chain 1: QVHLVESGGGLVQAGGSLRLSCAASGRTFLSMGWFRQAPGKEREFVAAISWTGGSTGYADSVKGRFTISRESDKETMYLQMNSLKPEDTAVYYCAARGDVYYGGDDATRYKYWGQGTQVTVSSGGGGSGGGGSGGGGSEPKSSDKTHTCPPCPAPELLGGPCVFLFPPKPKDTLMISRTPEVTCVVVDVSHEDPEVKFNWYVDGVEVHNAKTKPREEQYNSTYRVVSVLTVLHQDWLNGKEYKCKVSNKALPAPIEKTISKAKGQPREPQVYTLPPSRDELTKNQVSLYCLVKGFYPSDIAVEWESNGQPENNYKTTPPVLDSDGSFFLYSKLTVDKSRWQQGNVFSCSVMHEALHNHYTQKSLCLSPGK chain 2: QVQLVESGGGLVQAGGSLRLSCAVSGRALSDYNIGWFRQAPGKEREFVARKTWDGSSTRYDDSVKGRFTVSIEDAKNTAYLQMSSLKTEDTAVYYCAAGRYSRARGWEYDYWGQGTQVTVSSGGGGSGGGGSGGGGSEPKSSDKTHTCPPCPAPELLGGPCVFLFPPKPKDTLMISRTPEVTCVVVDVSHEDPEVKFNWYVDGVEVHNAKTKPREEQYNSTYRVVSVLTVLHQDWLNGKEYKCKVSNKALPAPIEKTISKAKGQPREPQVYTLPPSRDELTKNQVSLTCLVKGFYPSDIAVEWESNGQPENNYKTTPPVLDSDGSFFLTSKLTVDKSRWQQGNVFSCSVMHEALHNHYTQKSLCLSPGK	7.3 nM			no binding (tested: 350 nM (highest concentration))	≤ 1%	8.5 nM	3.7 nM	> 1000 nM	> 1000 nM
A06 F05-hFc (S239/442C T366Y/Y407T), [G4S]3 linker, MC-vc-PAB-MMAE conjugate, #665 (Fc fusion, DAR 4, MC-vc-PAB-MMAE on Cys of S239C and S442C (EU numbering), Biparatopic knob-into-hole VHH-hFc heterodimer, DAR 4; also called A06-F05 hFc-vcPAB-MMAE; A06-F05 hFc-vc-MMAE) chain 1: QVHLVESGGGLVQAGGSLRLSCAASGRTFLSMGWFRQAPGKEREFVAAISWTGGSTGYADSVKGRFTISRESDKETMYLQMNSLKPEDTAVYYCAARGDVYYGGDDATRYKYWGQGTQVTVSSGGGGSGGGGSGGGGSEPKSSDKTHTCPPCPAPELLGGPCVFLFPPKPKDTLMISRTPEVTCVVVDVSHEDPEVKFNWYVDGVEVHNAKTKPREEQYNSTYRVVSVLTVLHQDWLNGKEYKCKVSNKALPAPIEKTISKAKGQPREPQVYTLPPSRDELTKNQVSLYCLVKGFYPSDIAVEWESNGQPENNYKTTPPVLDSDGSFFLYSKLTVDKSRWQQGNVFSCSVMHEALHNHYTQKSLCLSPGK chain 2: QVQLVESGGGLVQAGGSLRLSCAASGRAFGDYNIGWFRQAPGKEREFVARRTWDGSSTRYDDSVKGRFTVSIDNAKNTAYLQMNSLKTEDTAVYYCAAGRYSRVRGWEYDYWGQGTQVTVSSGGGGSGGGGSGGGGSEPKSSDKTHTCPPCPAPELLGGPCVFLFPPKPKDTLMISRTPEVTCVVVDVSHEDPEVKFNWYVDGVEVHNAKTKPREEQYNSTYRVVSVLTVLHQDWLNGKEYKCKVSNKALPAPIEKTISKAKGQPREPQVYTLPPSRDELTKNQVSLTCLVKGFYPSDIAVEWESNGQPENNYKTTPPVLDSDGSFFLTSKLTVDKSRWQQGNVFSCSVMHEALHNHYTQKSLCLSPGK	7.9 nM			no binding (tested: 350 nM (highest concentration))	≤ 1%	9.8 nM	4.9 nM	> 1000 nM	> 1000 nM
